Literature values, collected in publication PMC7532970.
Read-outs that look alike come from different tables or passages of the source. One block for each substance: values may come before it.

Assays:
[1] = biological target: CBP KIX (Homo sapiens) (UniProt Q92793)
[2] = biological target: CBP KIX (Homo sapiens) (UniProt Q92793); remark: listed apart in the source
[3] = biological target: CBP KIX (Homo sapiens) (UniProt Q92793); remark: listed apart in the source

Sequence of CBP KIX (Homo sapiens) (Q92793 584-669): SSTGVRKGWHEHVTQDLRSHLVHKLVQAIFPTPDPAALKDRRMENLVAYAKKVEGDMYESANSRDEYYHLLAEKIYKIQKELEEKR
Sequence of CREB (P16220 whole entry): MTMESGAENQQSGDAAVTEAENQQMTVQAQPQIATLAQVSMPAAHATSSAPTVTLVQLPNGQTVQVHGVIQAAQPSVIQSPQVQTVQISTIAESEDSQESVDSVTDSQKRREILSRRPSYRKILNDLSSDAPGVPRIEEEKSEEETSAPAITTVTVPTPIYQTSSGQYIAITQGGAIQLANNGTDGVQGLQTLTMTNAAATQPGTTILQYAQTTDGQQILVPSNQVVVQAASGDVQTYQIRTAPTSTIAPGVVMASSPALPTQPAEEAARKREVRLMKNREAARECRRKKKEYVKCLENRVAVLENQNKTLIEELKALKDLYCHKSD
Sequence of c-myb (P10242 whole entry): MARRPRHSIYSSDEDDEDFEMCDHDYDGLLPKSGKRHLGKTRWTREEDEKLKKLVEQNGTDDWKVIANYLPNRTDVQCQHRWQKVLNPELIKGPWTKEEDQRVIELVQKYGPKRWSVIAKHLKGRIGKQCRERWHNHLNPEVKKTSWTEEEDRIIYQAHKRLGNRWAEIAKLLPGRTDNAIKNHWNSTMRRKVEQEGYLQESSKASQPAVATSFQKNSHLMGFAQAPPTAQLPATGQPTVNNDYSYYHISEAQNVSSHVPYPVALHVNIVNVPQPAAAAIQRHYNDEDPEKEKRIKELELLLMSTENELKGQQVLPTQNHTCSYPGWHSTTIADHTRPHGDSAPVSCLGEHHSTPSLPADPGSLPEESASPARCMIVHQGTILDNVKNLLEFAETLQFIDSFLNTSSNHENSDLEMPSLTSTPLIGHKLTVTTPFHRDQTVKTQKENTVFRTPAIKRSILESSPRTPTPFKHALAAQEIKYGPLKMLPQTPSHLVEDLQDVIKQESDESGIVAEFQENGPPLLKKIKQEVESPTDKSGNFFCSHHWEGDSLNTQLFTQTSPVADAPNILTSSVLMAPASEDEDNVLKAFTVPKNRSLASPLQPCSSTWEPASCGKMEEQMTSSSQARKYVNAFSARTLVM

- Kd [1]: > 90 µM
Substance: p53 (from UniProt P04637)

- Kd [2]: 0.7 µM
Substance: CREB (from UniProt P16220)

- Kd [3]: 15 µM
Substance: c-myb (from UniProt P10242)
